Measured values taken from FireProtDB (doi:10.1002/pro.343).

B1: Multidrug resistance operon repressor, P52003 (parent)
chain: MNYPVNPDLMPALMAVFQHVRTRIQSELDCQRLDLTPPDVHVLKLIDEQRGLNLQDLGRQMCRDKALITRKIRELEGRNLVRRERNPSDQRSFQLFLTDEGLAIHQHAEAIMSRVHDELFAPLTPVEQATLVHLLDQCLAAQPLEDI

Variants of: B1
Conditions: Pseudomonas aeruginosa (strain ATCC 15692 / DSM 22644 / CIP 104116 / JCM 14847 / LMG 12228 / 1C / PRS 101 / PAO1); pH 7.2; Thermal; CD; Sodium phosphate 10 mM; structure 1LNW; whole UniProt chain shown

Variant | Tm
MNYPVNPDLMPAMMAVFQHVRTRIQSELDCQRLDLTPPDVHVLKLIDEQRGLNLQDLGRQMCRDKALITRKIRELEGRNLVRRERNPSDQRSFQLFLTDEGLAIHQHAEAIMSRVHDELFAPLTPVEQATLVHLLDQCLAAQPLEDI | 47.8 °C

Same assay, conditions: Pseudomonas aeruginosa (strain ATCC 15692 / DSM 22644 / CIP 104116 / JCM 14847 / LMG 12228 / 1C / PRS 101 / PAO1); pH 7.2; 22 °C; GdnHCl; CD; Sodium phosphate 10 mM; transition: 3; structure 1LNW; whole UniProt chain shown

Variant | denaturant midpoint (higher = more stable)
MNYPVNPDLMPALMAVFQHVWTRIQSELDCQRLDLTPPDVHVLKLIDEQRGLNLQDLGRQMCRDKALITRKIRELEGRNLVRRERNPSDQRSFQLFLTDEGLAIHQHAEAIMSRVHDELFAPLTPVEQATLVHLLDQCLAAQPLEDI | 2.6 M
